From the supplement of paper PMC9112550, “Optimization of the antimicrobial peptide Bac7 by deep mutational scanning” (BMC Biology, 2022)

Tested on: Escherichia coli TOP10
Experiment: shrunken log2 fold change of peptide-encoding DNA abundance (4.5 h post-induction vs induction); higher = less antimicrobial activity (less host growth inhibition)
Conditions: time post-induction: 4.5 h; library: site-saturation at positions 5, 18, 19, 20
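Note: peptides expressed intracellularly from a pBAD plasmid library in pooled LB shake-flask culture, induced with 0.3% L-arabinose, DNA abundance read by NGS, three biological replicates, DESeq2 with apeglm shrinkage.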

| Sequence | shrunken log2 fold change |
| --- | --- |
| RRIRYRPPRLPRPRPRPMTPPRP | -0.0195 |
| RRIRYRPPRLPRPRPRPMTQPRP | -0.0104 |
| RRIRYRPPRLPRPRPRPMWMPRP | -0.00149 |
| RRIRYRPPRLPRPRPRPMYFPRP | -0.48 |
| RRIRYRPPRLPRPRPRPMYMPRP | -2.38 |
| RRIRYRPPRLPRPRPRPMYYPRP | -0.269 |
| RRIRYRPPRLPRPRPRPNAKPRP | -0.0394 |
| RRIRYRPPRLPRPRPRPNESPRP | 0.0169 |
| RRIRYRPPRLPRPRPRPNFNPRP | -0.818 |
| RRIRYRPPRLPRPRPRPNGAPRP | -0.0032 |
| RRIRYRPPRLPRPRPRPNGYPRP | 0.122 |
| RRIRYRPPRLPRPRPRPNHNPRP | -1.23 |
| RRIRYRPPRLPRPRPRPNIAPRP | -0.64 |
| RRIRYRPPRLPRPRPRPNIDPRP | -1.61 |
| RRIRYRPPRLPRPRPRPNIGPRP | -0.105 |
| RRIRYRPPRLPRPRPRPNIRPRP | 0.0146 |
| RRIRYRPPRLPRPRPRPNKMPRP | -1.19 |
| RRIRYRPPRLPRPRPRPNLSPRP | -0.0996 |
| RRIRYRPPRLPRPRPRPNPGPRP | -0.000104 |
| RRIRYRPPRLPRPRPRPNVQPRP | -0.0298 |
| RRIRYRPPRLPRPRPRPNVRPRP | -0.0227 |
| RRIRYRPPRLPRPRPRPNWFPRP | -0.892 |
| RRIRYRPPRLPRPRPRPNWHPRP | -0.575 |
| RRIRYRPPRLPRPRPRPNWWPRP | -0.00469 |
| RRIRYRPPRLPRPRPRPPANPRP | 0.169 |

| Sequence | shrunken log2 fold change |
| --- | --- |
| RRIRYRPPRLPRPRPRPPAQPRP | 0.23 |
| RRIRYRPPRLPRPRPRPPCAPRP | 2.51 |
| RRIRYRPPRLPRPRPRPPCDPRP | -0.196 |
| RRIRYRPPRLPRPRPRPPCFPRP | -0.242 |
| RRIRYRPPRLPRPRPRPPDMPRP | -0.625 |
| RRIRYRPPRLPRPRPRPPEKPRP | 0.274 |
| RRIRYRPPRLPRPRPRPPEWPRP | 0.0503 |
| RRIRYRPPRLPRPRPRPPFYPRP | -0.789 |
| RRIRYRPPRLPRPRPRPPGMPRP | 0.0171 |
| RRIRYRPPRLPRPRPRPPHGPRP | -0.0619 |
| RRIRYRPPRLPRPRPRPPHMPRP | -0.656 |
| RRIRYRPPRLPRPRPRPPHYPRP | -0.686 |
| RRIRYRPPRLPRPRPRPPIRPRP | -0.121 |
| RRIRYRPPRLPRPRPRPPIWPRP | -0.0337 |
| RRIRYRPPRLPRPRPRPPNCPRP | -0.236 |
| RRIRYRPPRLPRPRPRPPNGPRP | 3.11 |
| RRIRYRPPRLPRPRPRPPPAPRP | 0.878 |
| RRIRYRPPRLPRPRPRPPPEPRP | 0.456 |
| RRIRYRPPRLPRPRPRPPRCPRP | -0.0545 |
| RRIRYRPPRLPRPRPRPPSAPRP | 0.388 |
| RRIRYRPPRLPRPRPRPPTAPRP | -0.111 |
| RRIRYRPPRLPRPRPRPPTEPRP | 0.183 |
| RRIRYRPPRLPRPRPRPPTNPRP | 0.0849 |
| RRIRYRPPRLPRPRPRPPVGPRP | 0.0196 |
| RRIRYRPPRLPRPRPRPPWAPRP | 0.449 |

| Sequence | shrunken log2 fold change |
| --- | --- |
| RRIRYRPPRLPRPRPRPPWVPRP | -0.209 |
| RRIRYRPPRLPRPRPRPPYMPRP | -0.43 |
| RRIRYRPPRLPRPRPRPQAEPRP | -0.0183 |
| RRIRYRPPRLPRPRPRPQAQPRP | 0.0442 |
| RRIRYRPPRLPRPRPRPQARPRP | -0.0547 |
| RRIRYRPPRLPRPRPRPQCFPRP | -0.00674 |
| RRIRYRPPRLPRPRPRPQCHPRP | -0.198 |
| RRIRYRPPRLPRPRPRPQCIPRP | -0.0693 |
| RRIRYRPPRLPRPRPRPQDQPRP | -0.21 |
| RRIRYRPPRLPRPRPRPQEWPRP | -0.000687 |
| RRIRYRPPRLPRPRPRPQFFPRP | -0.0644 |
| RRIRYRPPRLPRPRPRPQGQPRP | -0.262 |
| RRIRYRPPRLPRPRPRPQHEPRP | 0.0438 |
| RRIRYRPPRLPRPRPRPQIGPRP | 0.00262 |
| RRIRYRPPRLPRPRPRPQILPRP | -0.0395 |
| RRIRYRPPRLPRPRPRPQKNPRP | -0.555 |
| RRIRYRPPRLPRPRPRPQKYPRP | -0.969 |
| RRIRYRPPRLPRPRPRPQMFPRP | -0.0885 |
| RRIRYRPPRLPRPRPRPQNLPRP | -0.0535 |
| RRIRYRPPRLPRPRPRPQQAPRP | -0.0122 |
| RRIRYRPPRLPRPRPRPQRCPRP | -0.0766 |
| RRIRYRPPRLPRPRPRPQRGPRP | -0.123 |
| RRIRYRPPRLPRPRPRPQRYPRP | -0.771 |
| RRIRYRPPRLPRPRPRPQVHPRP | -0.0163 |
| RRIRYRPPRLPRPRPRPQVKPRP | -0.318 |

| Sequence | shrunken log2 fold change |
| --- | --- |
| RRIRYRPPRLPRPRPRPQVNPRP | -0.0568 |
| RRIRYRPPRLPRPRPRPQWVPRP | -0.0081 |
| RRIRYRPPRLPRPRPRPQWYPRP | -0.118 |
| RRIRYRPPRLPRPRPRPQYEPRP | -0.565 |
| RRIRYRPPRLPRPRPRPQYNPRP | -1.49 |
| RRIRYRPPRLPRPRPRPQYQPRP | -0.103 |
| RRIRYRPPRLPRPRPRPRCCPRP | -0.233 |
| RRIRYRPPRLPRPRPRPRCHPRP | -0.512 |
| RRIRYRPPRLPRPRPRPRCQPRP | -0.259 |
| RRIRYRPPRLPRPRPRPRDYPRP | -1.39 |
| RRIRYRPPRLPRPRPRPREDPRP | -0.126 |
| RRIRYRPPRLPRPRPRPREEPRP | 0.0202 |
| RRIRYRPPRLPRPRPRPREKPRP | 0.124 |
| RRIRYRPPRLPRPRPRPREPPRP | 0.419 |
| RRIRYRPPRLPRPRPRPRERPRP | 0.126 |
| RRIRYRPPRLPRPRPRPRGRPRP | 0.142 |
| RRIRYRPPRLPRPRPRPRHPPRP | -0.266 |
| RRIRYRPPRLPRPRPRPRHTPRP | -0.108 |
| RRIRYRPPRLPRPRPRPRKCPRP | -0.247 |
| RRIRYRPPRLPRPRPRPRKNPRP | -0.268 |
| RRIRYRPPRLPRPRPRPRKSPRP | 0.117 |
| RRIRYRPPRLPRPRPRPRLQPRP | 0.196 |
| RRIRYRPPRLPRPRPRPRMDPRP | -0.0437 |
| RRIRYRPPRLPRPRPRPRMYPRP | -0.627 |
| RRIRYRPPRLPRPRPRPRNLPRP | -0.036 |

| Sequence | shrunken log2 fold change |
| --- | --- |
| RRIRYRPPRLPRPRPRPRNWPRP | -0.0364 |
| RRIRYRPPRLPRPRPRPRQMPRP | -0.0779 |
| RRIRYRPPRLPRPRPRPRRDPRP | -0.17 |
| RRIRYRPPRLPRPRPRPRRMPRP | -0.0427 |
| RRIRYRPPRLPRPRPRPRRSPRP | -0.0446 |
| RRIRYRPPRLPRPRPRPRTVPRP | -0.0278 |
| RRIRYRPPRLPRPRPRPRVIPRP | -0.0396 |
| RRIRYRPPRLPRPRPRPRVKPRP | 0.0364 |
| RRIRYRPPRLPRPRPRPRVQPRP | -0.617 |
| RRIRYRPPRLPRPRPRPSAAPRP | -0.222 |
| RRIRYRPPRLPRPRPRPSAQPRP | -0.17 |
| RRIRYRPPRLPRPRPRPSCDPRP | -0.74 |
| RRIRYRPPRLPRPRPRPSDDPRP | -0.917 |
| RRIRYRPPRLPRPRPRPSDVPRP | -0.199 |
| RRIRYRPPRLPRPRPRPSEQPRP | -0.0359 |
| RRIRYRPPRLPRPRPRPSFPPRP | -0.831 |
| RRIRYRPPRLPRPRPRPSFTPRP | -0.91 |
| RRIRYRPPRLPRPRPRPSFWPRP | -0.122 |
| RRIRYRPPRLPRPRPRPSGEPRP | -0.187 |
| RRIRYRPPRLPRPRPRPSHGPRP | -0.274 |
| RRIRYRPPRLPRPRPRPSIDPRP | -0.519 |
| RRIRYRPPRLPRPRPRPSISPRP | -0.601 |
| RRIRYRPPRLPRPRPRPSIYPRP | -1.09 |
| RRIRYRPPRLPRPRPRPSKHPRP | -0.786 |
| RRIRYRPPRLPRPRPRPSLPPRP | -0.546 |

| Sequence | shrunken log2 fold change |
| --- | --- |
| RRIRYRPPRLPRPRPRPSMTPRP | -0.817 |
| RRIRYRPPRLPRPRPRPSNRPRP | -0.134 |
| RRIRYRPPRLPRPRPRPSPYPRP | -0.709 |
| RRIRYRPPRLPRPRPRPSRQPRP | -0.114 |
| RRIRYRPPRLPRPRPRPSSHPRP | -2.24 |
| RRIRYRPPRLPRPRPRPSSYPRP | -0.955 |
| RRIRYRPPRLPRPRPRPSTRPRP | -0.367 |
| RRIRYRPPRLPRPRPRPSVAPRP | -0.183 |
| RRIRYRPPRLPRPRPRPSVMPRP | -0.194 |
| RRIRYRPPRLPRPRPRPSVVPRP | -0.844 |
| RRIRYRPPRLPRPRPRPSWGPRP | -0.154 |
| RRIRYRPPRLPRPRPRPSWHPRP | -1.12 |
| RRIRYRPPRLPRPRPRPSWVPRP | -0.597 |
| RRIRYRPPRLPRPRPRPSYCPRP | -0.407 |
| RRIRYRPPRLPRPRPRPSYEPRP | -0.629 |
| RRIRYRPPRLPRPRPRPSYGPRP | -0.383 |
| RRIRYRPPRLPRPRPRPSYYPRP | -1.66 |
| RRIRYRPPRLPRPRPRPTAEPRP | 0.0226 |
| RRIRYRPPRLPRPRPRPTAFPRP | 0.0438 |
| RRIRYRPPRLPRPRPRPTCKPRP | -0.178 |
| RRIRYRPPRLPRPRPRPTCNPRP | -0.351 |
| RRIRYRPPRLPRPRPRPTDIPRP | -0.031 |
| RRIRYRPPRLPRPRPRPTDNPRP | -1.05 |
| RRIRYRPPRLPRPRPRPTDRPRP | -0.144 |
| RRIRYRPPRLPRPRPRPTEPPRP | -0.131 |
